# ± gives the uncertainty stated by the source.
# Test: self-splicing fitness, log relative to wild type (ln ratio); higher = more splicing; Tetrahymena group I intron in knt gene, E. coli kanamycin selection, DiMSum; sequences stand for … in CUCUCU…GGAGGGAAAAGUUAUCAGGCAUGCACCUGGUAGCUAGUCUUUAAACCAAUAGAUUGCAUCGGUUUAAAAGGCAAGACCGUCAAAUUGCGGGAAAGGGGUCAACAGCCGUUCAGUACCAAGUCUCAGGGGAAACUUUGAGAUGGCCUUGCAAAGGGUAUGGUAAUAAGCUGACGGACAUGGUCCUAACCACGCAGCCAAGUCCUAAGUCAACAGAUCUUCUGUUGAUAUGGAUGCAGUUCACAGACUAAAUGUCGGUCGGGGAAGAUGUAUUCUUCUCAUAAGAUAUAGUCGGACCUCUCCUUAAUGGGAGCUAGCGGAUGAAGUGAUGCAACACUGGAGCCGCUGGGAACUAAUUUGUAUGCGAAAGUAUAUUGAUUAGUUUUGGAGUACUCGUGGUCG
# In short: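 The eight P1ex-region nucleotides of an intron in the knt kanamycin-resistance gene on pET-22b(+) were all randomised and the library put into E. coli BL21(DE3). Six replicate transformations were grown overnight at 37°C or 30°C on LB agar with or without 25 μg/mL kanamycin, together with 100 μg/mL carbenicillin, 50 μM IPTG and 0.2% rhamnose. Colonies were pooled and amplicon-sequenced on an Illumina HiSeq 2500. Fitness from DiMSum is the error-weighted combination of wild-type-normalised replicate fold changes, kanamycin over none.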
Sequence,self-splicing fitness (ln) (30 °C),self-splicing fitness (ln) (37 °C)
AUUUAGCAAUAUUACGAGAA,-2.09 ± 0.32,-1.2 ± 0.28
GGACAGCAAUAUUACGCUAC,-4.74 ± 0.27,-2.33 ± 0.24
GCACAGCAAUAUUACGUUCA,-0.911 ± 0.054,-0.855 ± 0.062
CGUGAGCAAUAUUACGUUGU,-4.24 ± 0.26,-1.58 ± 0.17
CGACAGCAAUAUUACGACGG,0.243 ± 0.074,0.0681 ± 0.086
UGCCAGCAAUAUUACGUUAC,-2.48 ± 0.23,-3.38 ± 0.31
AAUUAGCAAUAUUACGCUGA,-2.75 ± 0.4,-2.42 ± 0.27
UAUCAGCAAUAUUACGAACG,0.353 ± 0.085,0.157 ± 0.094
ACCUAGCAAUAUUACGUUAU,-2.43 ± 0.11,-1.53 ± 0.11
AACCAGCAAUAUUACGUUUG,-2.83 ± 0.077,-2.31 ± 0.1
CGAAAGCAAUAUUACGCUCU,-2.56 ± 0.14,-1.56 ± 0.15
GUUCAGCAAUAUUACGACCU,0.353 ± 0.16,0.115 ± 0.17
UGCCAGCAAUAUUACGAACA,-0.458 ± 0.14,0.334 ± 0.17
ACGAAGCAAUAUUACGGAUG,-2.82 ± 0.13,-1.44 ± 0.11
GGAUAGCAAUAUUACGAAUC,-1.72 ± 0.088,-1.8 ± 0.12
AGAGAGCAAUAUUACGUUGC,-2.89 ± 0.23,-2.89 ± 0.32
CGAUAGCAAUAUUACGAGGU,-2.8 ± 0.22,-3.01 ± 0.34
AGGUAGCAAUAUUACGCUCC,-3.31 ± 0.052,-2.43 ± 0.064
UGCAAGCAAUAUUACGUUUC,-4.31 ± 0.26,-3.24 ± 0.17
CAGUAGCAAUAUUACGUCGC,–,-2.7 ± 0.4
GACCAGCAAUAUUACGUUGC,-1.78 ± 0.067,-1.56 ± 0.1
AGGAAGCAAUAUUACGAGGA,-2.39 ± 0.29,-2.32 ± 0.22
CGGGAGCAAUAUUACGAAUC,–,-0.75 ± 0.23
GCAGAGCAAUAUUACGGAGG,-5.06 ± 0.25,-2.14 ± 0.15
ACCAAGCAAUAUUACGUGAA,-2.5 ± 0.08,-1.54 ± 0.091

Sequence,self-splicing fitness (ln) (30 °C),self-splicing fitness (ln) (37 °C)
AACUAGCAAUAUUACGGGCG,-0.139 ± 0.081,-0.0101 ± 0.11
UUCAAGCAAUAUUACGUCGU,-2.69 ± 0.15,-1.44 ± 0.14
AGAUAGCAAUAUUACGCUUC,-2.66 ± 0.42,-2.27 ± 0.49
CAGAAGCAAUAUUACGCGCU,-2.62 ± 0.17,-1.92 ± 0.18
UAACAGCAAUAUUACGAGCC,-2.65 ± 0.24,-2.24 ± 0.49
GGAGAGCAAUAUUACGAUGU,-1.92 ± 0.15,-1.74 ± 0.28
GUAAAGCAAUAUUACGUGCG,-0.447 ± 0.065,-0.538 ± 0.069
CUACAGCAAUAUUACGUUUG,-0.766 ± 0.04,-0.34 ± 0.06
AUAAAGCAAUAUUACGGACG,-0.505 ± 0.11,-0.793 ± 0.13
AAGCAGCAAUAUUACGGGAA,-3.05 ± 0.22,-2.15 ± 0.17
UACGAGCAAUAUUACGAAGG,–,-0.765 ± 0.3
GACCAGCAAUAUUACGAUAC,-0.984 ± 0.056,-0.634 ± 0.066
UCCAAGCAAUAUUACGCAUC,-3.02 ± 0.21,-2.93 ± 0.24
CCACAGCAAUAUUACGCGUG,-3.86 ± 0.18,-2.38 ± 0.14
AGAGAGCAAUAUUACGGUCA,-2.48 ± 0.49,-1.97 ± 0.24
AUCGAGCAAUAUUACGCUAU,-3.38 ± 0.29,-3.08 ± 0.24
GACGAGCAAUAUUACGGCCC,-0.0683 ± 0.45,-0.45 ± 0.4
AACCAGCAAUAUUACGAUCG,-0.866 ± 0.084,-0.752 ± 0.099
GCGAAGCAAUAUUACGGUUC,-3.23 ± 0.2,-1.24 ± 0.18
AAACAGCAAUAUUACGGUGG,-2.61 ± 0.096,-1.93 ± 0.12
CGCUAGCAAUAUUACGCUUU,-3.13 ± 0.18,-2.32 ± 0.2
AGAAAGCAAUAUUACGGGAA,-2.72 ± 0.13,-1.73 ± 0.12
UGAUAGCAAUAUUACGGGCC,-3.78 ± 0.42,–
CUCUAGCAAUAUUACGCUUU,-3.13 ± 0.28,-2.08 ± 0.22
